# Test results reported in paper PMC8329185 (2021).
# B1: GST-TrnSR (WT, without mCherry) (natural protein)
# chain: MEGAKPTLQLVYQAVQALYHDPDPSGKERASFWLGELQRSVHAWEISDQLLQIRQDVESCYFAAQTMKMKIQTSFYELPTDSHASLRDSLLTHIQNLKDLSPVIVTQLALAIADLALQMPSWKGCVQTLVEKYSNDVTSLPFLLEILTVLPEEVHSRSLRIGANRRTEIIEDLAFYSSTVVSLLMTCVEKAGTDEKMLMKVFRCLGSWFNLGVLDSNFMANNKLLALLFEVLQQDKTSSNLHEAASDCVCSALYAIENVETNLPLAMQLFQGVLTLETAYHMAVAREDLDKVLNYCRIFTELCETFLEKIVCTPGQGLGDLRTLELLLICAGHPQYEVVEISFNFWYRLGEHLYKTNDEVIHGIFKAYIQRLLHALARHCQLEPDHEGVPEETDDFGEFRMRVSDLVKDLIFLIGSMECFAQLYSTLKEGNPPWEVTEAVLFIMAAIAKSVDPENNPTLVEVLEGVVRLPETVHTAVRYTSIELVGEMSEVVDRNPQFLDPVLGYLMKGLCEKPLASAAAKAIHNICSVCRDHMAQHFNGLLEIARSLDSFLLSPEAAVGLLKGTALVLARLPLDKITECLSELCSVQVMALKKLLSQEPSNGISSDPTVFLDRLAVIFRHTNPIVENGQTHPCQKVIQEIWPVLSETLNKHRADNRIVERCCRCLRFAVRCVGKGSAALLQPLVTQMVNVYHVHQHSCFLYLGSILVDEYGMEEGCRQGLLDMLQALCIPTFQLLEQQNGLQNHPDTVDDLFRLATRFIQRSPVTLLRSQVVIPILQWAIASTTLDHRDANCSVMRFLRDLIHTGVANDHEEDFELRKELIGQVMNQLGQQLVSQLLHTCCFCLPPYTLPDVAEVLWEIMQVDRPTFCRWLENSLKGLPKETTVGAVTVTHKQLTDFHKQVTSAEECKQVCWALRDFTRLFR
# Target: His6-DNAJB1 (human, UniProt P25685 1-340)
# Sequence (P25685 whole entry): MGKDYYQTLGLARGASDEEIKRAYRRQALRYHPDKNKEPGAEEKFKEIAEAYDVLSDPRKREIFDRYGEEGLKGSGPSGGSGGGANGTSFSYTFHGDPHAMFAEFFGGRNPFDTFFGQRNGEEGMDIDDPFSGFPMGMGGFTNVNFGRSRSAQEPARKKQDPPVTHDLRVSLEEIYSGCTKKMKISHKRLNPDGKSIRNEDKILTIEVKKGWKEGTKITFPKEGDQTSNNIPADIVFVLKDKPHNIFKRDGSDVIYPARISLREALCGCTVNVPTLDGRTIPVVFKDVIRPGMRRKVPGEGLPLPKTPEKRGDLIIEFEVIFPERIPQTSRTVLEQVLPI
# Test: SPR
binder,measurement,value
B1,koff,0.00014 s⁻¹
